Laboratory results: the supplement of paper PMC12764529
± gives the half width of the 95% confidence interval.

How the values were obtained:
[1] = folding stability dG unfold from trypsin proteolysis; higher = more stable
Summary of the method: (§1)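 Unfolding free energy was derived, per protease or combined, by relating Bayesian-fitted K50 values from sequencing counts to a sequence-predicted unfolded-state K50 and a shared folded-state K50. The underlying digests exposed cysteine-free mini-proteins under 80 residues, in a PA-tagged cDNA display construct, to trypsin and chymotrypsin at 11 threefold-diluted concentrations and to a no-protease condition. A filter kept only designs with AlphaFold2 dimer inter-PAE above 15.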

[2] = folding stability dG unfold from chymotrypsin proteolysis; higher = more stable
Summary of the method: as §1

[3] = folding stability dG unfold (combined trypsin and chymotrypsin); higher = more stable
Summary of the method: as §1

| Sequence | folding stability dG unfold [1] [kcal/mol] | folding stability dG unfold [2] [kcal/mol] | folding stability dG unfold [3] [kcal/mol] |
| --- | --- | --- | --- |
| SAGVVEITFEVPETGEPFTLVIDEDGNVTGRWPSTGDEQEWKLGDKVITFPPNMSPELAAELEKEALSESAG [r14_561_TrMRF] | 0.66 ± 0.053 | 0.587 ± 0.25 | 0.644 ± 0.18 |
| SAGVVVERTVTRTVPKDSATKEKIIEEIKASMPGMKVKEVEVLSETPLPDGSIVVTVKLTIERPPDVLESAG [r5_682_JUSTAS] | 3.23 ± 0.11 | 2.88 ± 0.092 | 2.98 ± 0.11 |
| SAGVVVRPGEPVPFYVVRVETELRTRPRPDGSEVTTVETRVEVRPYTVTVGPVPVVEVPPDATDPADAASAG [r5_770_TrMRF] | 2.09 ± 0.2 | 3.96 ± 0.17 | 3.21 ± 0.16 |
| SAGWKPITAEEIKKLVKEFAEKAPPGDKRPVTVEIRLPLPNGRHWVFTIKVERTDNNVKVKIEVQPYNSAGG [r19_220_TrROS] | 2.49 ± 0.076 | 3.64 ± 0.039 | 3.2 ± 0.11 |
| SAGWRQILDMARNMLENGHMFRIEWTGPGGKPQEFRIPLDDIETLLDNWPDPDDIRSVDIEVYPPGEPISAG [r5_957_TrROS] | 1.72 ± 0.021 | 2.45 ± 0.056 | 2.22 ± 0.062 |
| SAGWYIKIKIEYPGDGQKKLEVPIPIPSPEEAKEFADEIADMLAEQNGGNIKIEVEVFRLPPVPPEDQGSAG [r5_87_TrROS] | 0.544 ± 0.11 | 2.2 ± 0.15 | 1.82 ± 0.21 |
| SAGWYYIIIIKHDNKPIVFVIPPEGMPPEGIRDQISEMLGMPPDNVEIDDIVPFDDNQDAEEAVKEALDSAG [r5_900_TrROS] | 1.53 ± 0.067 | 2.33 ± 0.14 | 2.09 ± 0.22 |
| SAGYKATIIPPDGSEVTIDVKAEDLGPLVEELEKAGLKVESLEVSPDGTAVIPVTSPDGKPYLIVIDLKSAG [r5_645_TrMRF] | 0.418 ± 0.032 | 0.305 ± 0.11 | 0.413 ± 0.094 |
| SAIEITVMSDSPEEAKEKAKEFANWLQNRMRRDGLPDMPIPIKIEVIPVPPPKPKPKRDPDDGEWKPDPSAG [r14_475_TrROS] | -0.415 ± 0.57 | 0.731 ± 0.34 | 0.487 ± 0.23 |
| SAIKIKNVEFNDNGWMEIEIPYPENGREVTIRMDPNGNIQVEEYPPNDGKPKRKTIPGMSIEEILEELLSAG [r14_760_TrROS] | 1.08 ± 0.24 | 0.25 ± 0.13 | 0.55 ± 0.33 |
| SAIKLPDGFEIKEVEFTPDGNVTIKIEVKKYSFMIYNPDNGQIQHIPPGKEQEITMPPNEPMRIWVIKPSAG [r14_385_TrROS] | 1.45 ± 0.13 | 1.58 ± 0.26 | 1.48 ± 0.36 |
| SAIRIEEITIDPEYGVITITFDYPMPPGAEKIKFKIFIDGFKIKEIEYEVDPENGWVRMTLTIRIPKDASAG [r14_244_TrROS] | 4.09 ± 0.28 | 6.5 ± 0.44 | > 6 |
| SAKEELYIIEIKVYVDGKEVKTITKVITVPEEKLEEKLKELLKKLAEELGLEIKKVEVKIKKLSLEELKSAG [r14_104_TrROS_Hall] | 2.79 ± 0.22 | 3.09 ± 0.14 | 2.83 ± 0.34 |
| SAKFRPVEIPFEIKLEEKDPEDGKKEEREFDIKVKIMVFPDNGMVFISIEFIELGRPITIMLPPGAPIISAG [r14_587_TrROS] | 2.61 ± 0.17 | 3.37 ± 0.092 | 3.08 ± 0.28 |
| SAKFRVSISYDPPDGYLTIMFRYPNPNQPITPEEIEEIAREILEERGHKVKIDEIHHEGNYFMIKIKLPSAG [r14_556_TrROS] | 2.51 ± 0.11 | 2.54 ± 0.11 | 2.75 ± 0.2 |
| SAKFRVTEIHPNGNNFEIRIERYDPNGEKKKLPIPVNADNMQIDEVDGDKITIYFPNNGREITLPLEDLSAG [r14_947_TrROS] | -0.594 ± 0.34 | -0.114 ± 0.42 | -0.152 ± 0.36 |
| SAKIEIIKKDGEYYLRITLENGKKKTIKLKGIKKIEIKNGKIYIYNKKTGKKIILKNAKIKKIEIEKVPSAG [r14_83_TrROS_Hall] | 3.1 ± 0.18 | 4.6 ± 0.18 | 3.87 ± 0.41 |
| SAKIEVYELPDGSKEIVFEFGDKVIRVTFFPDYPLAVVEVFDPPKDEVVKTIPVRADDLEDTIKKILEESAG [r14_583_TrMRF] | 1.8 ± 0.096 | 3.07 ± 0.049 | 2.67 ± 0.049 |
| SAKIRIPLEKLIDLAESIPGVEVLYDPETGLLLAFIPEIGMLILIRLEEDPEDPDNVEVDIEIIPLSPFSAG [r14_604_TrMRF] | 2.75 ± 0.16 | 2.08 ± 0.22 | 2.4 ± 0.19 |
| SAKITFIAPGGKPIVIDIDPNYEVIEVIEFPELGVVLILLRNPETGELYAILITPPDYRPTYIELIPLDSAG [r14_311_TrMRF] | 3.43 ± 0.096 | 4.29 ± 0.15 | 4.17 ± 0.2 |
| SAKKIILIKAESEEELKKAIEEAKKLAEEGKKVEIIIETPKGLILIEIDVKTKKIKIKNLETGEEIELESAG [r14_423_TrROS_Hall] | 1.49 ± 0.1 | 0.375 ± 0.1 | 1.19 ± 0.23 |

| Sequence | folding stability dG unfold [1] [kcal/mol] | folding stability dG unfold [2] [kcal/mol] | folding stability dG unfold [3] [kcal/mol] |
| --- | --- | --- | --- |
| SAKKIPLDDAKIRIKMESPNGMIMEFPIKNVQIDPKNGKLSFEFPMRIYNPDNGKERPMRMKIDEIVPVSAG [r14_825_TrROS] | 0.107 ± 0.37 | 0.299 ± 0.25 | 0.22 ± 0.19 |
| SAKKITLTPPNGKKITITVHPDGSITITYEKGKITLPGHPGAKIKKATVDPKKGYITIIVNDKPIVIPISAG [r14_276_TrMRF] | 1.66 ± 0.044 | 2.83 ± 0.071 | 2.39 ± 0.12 |
| SAKKKFKVKEVKVTKHKGKFKIGDKEIEKELYTVNVVIEDENGNKYPFTFTFEKPEELKKFVEKLEEEKSAG [r14_36_TrMRF] | 3.03 ± 0.17 | 4.075 ± 0.028 | 3.61 ± 0.2 |
| SAKKKITVKIKIEYDKETGTLKVEVEITYPDGKKVKVEAEIDLKTGKITIKVYDKNGKLIAEIEIELPPSAG [r14_524_TrROS_Hall] | 2.68 ± 0.25 | 2.35 ± 0.092 | 2.61 ± 0.36 |
| SAKKKVIEVELPPDAKVVTIKLEGKGVEITFVEVDGKLVITVRYKDDPSKTVTIVVKTKEEADALLKALSAG [r14_716_TrROS_Hall] | 1.23 ± 0.082 | 1.85 ± 0.068 | 1.66 ± 0.27 |
| SAKKLIIKVEVETFDEETGELKTEERTIEADTLEDALAEIERELPPGARVRIEVFDADGKLVETIEIELSAG [r14_234_TrROS_Hall] | 4.41 ± 0.23 | 3.1 ± 0.091 | 3.92 ± 0.15 |
| SAKKTIVVPVEKLKELLDALKEAGYEVKVEYNKENPVVTVTITVKDKNGKELKIELVVDKKTGLVTIKLSAG [r14_169_TrROS_Hall] | 1.97 ± 0.077 | 2.45 ± 0.051 | 2.26 ± 0.13 |
| SAKLAKELAEELAKEILPKFPNIKAVKVEVEPLGDYAIATIIWEKENGKPIISKAIIEKNKKILKVDISSAG [r14_719_TrMRF] | 1.02 ± 0.047 | 1.26 ± 0.043 | 1.19 ± 0.19 |
| SAKLIRDLLRDHGFPIKNIDVQKNPNGKTYISIEIKMYTPEYKNDEGRPKPRPVEMTATFPADDLLDALSAG [r14_16_TrROS] | 0.91 ± 0.16 | 0.507 ± 0.25 | 0.676 ± 0.25 |
| SAKLPEGAVVVIEDIEEKEVNGKKYKTIKISVYDKKNKGKLIAETEIVVENGKIVEKKVKVKKVSKEELSAG [r14_651_TrROS_Hall] | 0.887 ± 0.027 | 2.05 ± 0.14 | 1.61 ± 0.14 |
| SAKLTLEIEVNGKKYKAEITSVDEETGTVTIKVTFPDGSTQTLTLTFPPAPPPKVEKVYVVDKDGKLLKSAG [r14_466_TrROS_Hall] | 0.644 ± 0.025 | 1.83 ± 0.089 | 1.45 ± 0.12 |
| SAKMSPEMRELVERLQDLYNENGYKVKIEMSNKPGMIRINVQMPNPRKKRKIKEALRGDGFPITRVEIYSAG [r14_284_TrROS] | 1.62 ± 0.077 | 0.929 ± 0.25 | 1.36 ± 0.23 |
| SAKMYLVIIEIKKDGKTYKLIIIIPEEDENLTEEEILEKIRELAEKLNLEIEKIEVIPLEEAKKLLEELSAG [r14_953_TrROS_Hall] | 3.66 ± 0.074 | 5.25 ± 0.13 | 5.23 ± 0.13 |
| SAKNIAIKVSIWPFDPEDGEPQTFEITYPFPDPEDAIDEIEEFLPPGYRVKIEVFDPDGKPLKEIEIRISAG [r14_234_TrROS] | 1.93 ± 0.1 | 2.28 ± 0.048 | 2.09 ± 0.19 |
| SAKPIPLKNVTINMYKDEKGNYYFKVTLNDKFIGEFEFETTEEALEGAIELAKEIEKIYGPNNIKIKNESAG [r14_791_TrMRF] | 2.33 ± 0.2 | 2.7 ± 0.067 | 2.64 ± 0.31 |
| SAKTIKIEIEVKPEKLEEVLEEIAKALAEKLGLPEDVKEIKIEVTKIEVEKVKVDGKEYVKVKIEIKVESAG [r14_736_TrROS_Hall] | 3.04 ± 0.19 | 3.97 ± 0.28 | 3.59 ± 0.32 |
| SAKVITIKLKIKVKTEEELEKAKELADELAKKLAEEGKKVKVEVVKIEVEENENGEKTVTIEIKIYLEPSAG [r14_48_TrROS_Hall] | 3.36 ± 0.22 | 3.72 ± 0.21 | 3.6 ± 0.35 |
| SAKVSHLEFSLPNSVVTPEDLLAALEKLGFPPSKIKKMEIVKVKDNSYVVKIYLENEDGSDSIITLHLPSAG [r14_30_TrMRF] | 0.515 ± 0.078 | 2.39 ± 0.066 | 1.78 ± 0.11 |
| SAKYYFITVEIYMRTGGGPRKMDITVMIPPEEMPPEDVKEIAKEIADWLAEHHPGFEVKVTIIPPDDMKSAG [r14_723_TrROS] | 2.39 ± 0.092 | 4.07 ± 0.16 | 3.74 ± 0.47 |
| SALEEEVKKRAEEIAQEIKEKFPNVKEKVVEIELPLPNGTKLKATVTISRSINEKGIEYKIKIEVSEGLSAG [r14_788_JUSTAS] | 3.22 ± 0.081 | 3.99 ± 0.12 | 3.68 ± 0.17 |
| SALIETAEELARELGVEAELVEIEEGEDVALLRIRLRVDGVPYYFLVRIERPGEDPRIFRVEILEVRPESAG [r14_387_TrMRF] | 3.67 ± 0.071 | 4.302 ± 0.034 | 4.066 ± 0.031 |
